How the values were obtained:
[1] = biological target: cblb_human CBLB (UniProt Q13191)
[2] = biological target: cblb_human CBLB (UniProt Q13191); remark: listed apart in the source
[3] = biological target: cblb_human CBLB (UniProt Q13191); remark: listed apart in the source
[4] = biological target: cblb_human CBLB (UniProt Q13191); remark: listed apart in the source

cblb_human CBLB, sequence (Q13191 whole entry): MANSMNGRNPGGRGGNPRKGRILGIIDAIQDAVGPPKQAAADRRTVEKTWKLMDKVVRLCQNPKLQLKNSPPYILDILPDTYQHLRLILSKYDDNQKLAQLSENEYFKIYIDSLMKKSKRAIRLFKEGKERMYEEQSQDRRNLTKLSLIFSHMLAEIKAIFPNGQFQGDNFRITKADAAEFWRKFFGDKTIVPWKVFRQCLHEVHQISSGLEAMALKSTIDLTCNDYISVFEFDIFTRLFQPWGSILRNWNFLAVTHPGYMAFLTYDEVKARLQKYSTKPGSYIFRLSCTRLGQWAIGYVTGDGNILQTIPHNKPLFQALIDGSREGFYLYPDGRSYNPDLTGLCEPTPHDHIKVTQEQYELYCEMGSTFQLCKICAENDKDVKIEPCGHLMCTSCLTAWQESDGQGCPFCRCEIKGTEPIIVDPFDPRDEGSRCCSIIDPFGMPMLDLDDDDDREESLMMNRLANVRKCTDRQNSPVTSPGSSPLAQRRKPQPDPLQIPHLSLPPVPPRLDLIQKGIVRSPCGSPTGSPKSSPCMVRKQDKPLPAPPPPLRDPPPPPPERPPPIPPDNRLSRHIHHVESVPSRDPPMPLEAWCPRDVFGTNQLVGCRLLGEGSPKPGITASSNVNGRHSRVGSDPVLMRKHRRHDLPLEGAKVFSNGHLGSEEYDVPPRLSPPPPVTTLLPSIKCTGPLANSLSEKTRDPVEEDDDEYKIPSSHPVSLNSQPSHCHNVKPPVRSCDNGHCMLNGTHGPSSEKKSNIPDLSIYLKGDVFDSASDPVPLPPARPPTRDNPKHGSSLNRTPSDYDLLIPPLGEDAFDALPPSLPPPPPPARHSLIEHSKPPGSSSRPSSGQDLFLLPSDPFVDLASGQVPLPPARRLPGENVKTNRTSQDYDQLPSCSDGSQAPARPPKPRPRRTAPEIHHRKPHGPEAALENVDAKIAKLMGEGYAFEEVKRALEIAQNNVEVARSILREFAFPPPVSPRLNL

SH2/SH3 adapter protein NCK1 (Homo sapiens) (from UniProt P16333) W38K
effect of a mutation on the interaction [1]: disrupting interaction

SH2/SH3 adapter protein NCK1 (Homo sapiens) (from UniProt P16333) W38K;W143K;W229K
effect of a mutation on the interaction [2]: disrupting interaction

SH2/SH3 adapter protein NCK1 (Homo sapiens) (from UniProt P16333) W143K
effect of a mutation on the interaction [3]: disrupting interaction

SH2/SH3 adapter protein NCK1 (Homo sapiens) (from UniProt P16333) W229K
effect of a mutation on the interaction [4]: disrupting interaction
